One test addresses CD22 (human) (UniProt P20273). The test is described as follows: cell-based or functional assay.
Another test addresses mesothelin (UniProt Q13421). Put plainly: cell-based or functional assay.
For test [1], the target named is T1, CD22 (human, UniProt P20273 20-847).
T1 construct: whole, on cells; also called native CD22(αβ) on Daudi cells; CD22 antigen
T1 sequence (looked up): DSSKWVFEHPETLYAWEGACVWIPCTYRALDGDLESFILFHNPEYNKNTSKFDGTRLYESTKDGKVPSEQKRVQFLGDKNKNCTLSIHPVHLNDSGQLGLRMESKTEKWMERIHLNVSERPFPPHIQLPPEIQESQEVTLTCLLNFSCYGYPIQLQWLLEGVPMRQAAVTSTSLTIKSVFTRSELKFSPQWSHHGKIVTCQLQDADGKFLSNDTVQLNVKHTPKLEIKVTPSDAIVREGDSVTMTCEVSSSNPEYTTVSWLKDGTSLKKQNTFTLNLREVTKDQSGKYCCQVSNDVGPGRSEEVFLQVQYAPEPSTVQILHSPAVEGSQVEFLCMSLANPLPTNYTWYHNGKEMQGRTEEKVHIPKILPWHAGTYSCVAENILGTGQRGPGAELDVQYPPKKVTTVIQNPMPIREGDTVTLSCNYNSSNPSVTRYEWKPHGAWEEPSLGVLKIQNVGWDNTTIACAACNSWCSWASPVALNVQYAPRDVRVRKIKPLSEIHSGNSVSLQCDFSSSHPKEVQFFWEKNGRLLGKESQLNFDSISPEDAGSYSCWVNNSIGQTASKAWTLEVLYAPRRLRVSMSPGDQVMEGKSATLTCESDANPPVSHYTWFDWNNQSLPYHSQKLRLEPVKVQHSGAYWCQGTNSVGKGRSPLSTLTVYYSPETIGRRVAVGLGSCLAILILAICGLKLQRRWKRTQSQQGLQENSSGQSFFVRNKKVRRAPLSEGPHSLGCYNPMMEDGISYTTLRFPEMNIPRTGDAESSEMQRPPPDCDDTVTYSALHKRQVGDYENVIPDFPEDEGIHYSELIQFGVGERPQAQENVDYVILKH
Put plainly: monoclonal phage FACS on Daudi cells.

In test [2] the target is T1, CD22. Put plainly: monoclonal phage FACS on Daudi cells; HA22 is the reference that the mutants exceed.

Data on ten molecules can be found in patent publication US20070189962A1 (GOV OF US AS REPRESENTED BY THE SEC OF HEALTH, published 2007).

mesothelin, sequence (Q13421 other isoform, or with tags, fused parts or gaps limits assumed): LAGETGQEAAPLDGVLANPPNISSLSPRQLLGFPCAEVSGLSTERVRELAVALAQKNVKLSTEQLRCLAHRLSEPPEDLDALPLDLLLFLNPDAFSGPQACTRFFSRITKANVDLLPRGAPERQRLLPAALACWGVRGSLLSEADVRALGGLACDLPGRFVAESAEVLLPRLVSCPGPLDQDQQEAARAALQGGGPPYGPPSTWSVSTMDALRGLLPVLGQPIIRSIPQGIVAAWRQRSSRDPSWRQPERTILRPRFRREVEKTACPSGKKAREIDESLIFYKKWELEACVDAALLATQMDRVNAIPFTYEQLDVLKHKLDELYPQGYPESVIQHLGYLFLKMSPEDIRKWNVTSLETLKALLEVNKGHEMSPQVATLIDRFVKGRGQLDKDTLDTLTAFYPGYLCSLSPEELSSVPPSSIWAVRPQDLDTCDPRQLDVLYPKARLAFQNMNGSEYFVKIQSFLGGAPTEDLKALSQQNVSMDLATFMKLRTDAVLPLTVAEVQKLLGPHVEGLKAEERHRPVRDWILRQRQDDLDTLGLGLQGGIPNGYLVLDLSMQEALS

Regarding HA22 (R490A), in the test with CD22 (human), the Cytotoxicity activity (IC50), protein synthesis inhibition, Daudi came out at 0.2 ng/mL and the Cytotoxicity activity (IC50), protein synthesis inhibition, Raji amounted to 0.3 ng/mL.
In the test with CD22 (human), HA22 RFB4 (scFv)-PE38 immunotoxin had a Cytotoxic Activity (IC50), Daudi (30 min incubation) of 5.6 ng/mL; a Cytotoxic Activity (IC50), Daudi, 16 hr, protein synthesis of 0.52 ng/mL; a Cytotoxic Activity (IC50), Namalwa of 1.2 ng/mL; a Cytotoxic Activity (IC50), Ramos of 4.9 ng/mL.
On to RFB4 (dsFv)-PE38, for which, in the test with CD22 (human), the Cytotoxicity activity (IC50), protein synthesis inhibition, Daudi is 2.8 ng/mL and the Cytotoxicity activity (IC50), protein synthesis inhibition, Raji was determined as 2.5 ng/mL.
In the test with mesothelin, SS1P showed an IC50, inhibition of protein synthesis, A431/K5 of 0.7 ng/mL and an IC50, inhibition of protein synthesis, A1847 of 4 ng/mL.
For the molecule SS1P (R490A), in the test with mesothelin, the IC50, inhibition of protein synthesis, A431/K5 came to 0.45 ng/mL and the IC50, inhibition of protein synthesis, A1847 amounted to 1.5 ng/mL.

B1: B5 (scFv displayed on phage) (scFv, V domains shown)
VH: EVQLVESGGGLVKPGGSLKLSCAASGFAFSIYDMSWVRQTPEKRLEWVAYISSGGGTTYYPDTVKGRFTISRDNAKNTLYLQMSSLKSEDTAMYYCARHSGYGTHWGVLFAYWGQGTLVTVSA
VL: DIQMTQTTSSLSASLGDRVTISCRASQDIHGYLNWYQQKPDGTVKLLIYYTSILHSGVPSRFSGSGSGTDYSLTISNLEQEDFATYFCQQGNTLPWTFGGGTKLEIK
notes: also called mutant B5; L-CDR1 HG mutant of HA22
As to B1, the binding result with CD22 [1] was “binds”.

B2: E6 (scFv displayed on phage) (scFv, V domains shown)
VH: EVQLVESGGGLVKPGGSLKLSCAASGFAFSIYDMSWVRQTPEKRLEWVAYISSGGGTTYYPDTVKGRFTISRDNAKNTLYLQMSSLKSEDTAMYYCARHSGYGTHWGVLFAYWGQGTLVTVSA
VL: DIQMTQTTSSLSASLGDRVTISCRASQDIGRYLNWYQQKPDGTVKLLIYYTSILHSGVPSRFSGSGSGTDYSLTISNLEQEDFATYFCQQGNTLPWTFGGGTKLEIK
notes: also called L-CDR1 GR mutant of HA22
For the molecule B2, the binding result in the test with CD22 [1] is recorded as “binds”.

B3: D8 (scFv displayed on phage) (scFv, V domains shown)
VH: EVQLVESGGGLVKPGGSLKLSCAASGFAFSIYDMSWVRQTPEKRLEWVAYISSGGGTTYYPDTVKGRFTISRDNAKNTLYLQMSSLKSEDTAMYYCARHSGYGTHWGVLFAYWGQGTLVTVSA
VL: DIQMTQTTSSLSASLGDRVTISCRASQDIARYLNWYQQKPDGTVKLLIYYTSILHSGVPSRFSGSGSGTDYSLTISNLEQEDFATYFCQQGNTLPWTFGGGTKLEIK
notes: also called L-CDR1 AR mutant of HA22
With B3, the binding result with CD22 [1] is “binds”.

B4: B8 (scFv displayed on phage) (scFv, V domains shown)
VH: EVQLVESGGGLVKPGGSLKLSCAASGFAFSIYDMSWVRQTPEKRLEWVAYISSGGGTTYYPDTVKGRFTISRDNAKNTLYLQMSSLKSEDTAMYYCARHSGYGTHWGVLFAYWGQGTLVTVSA
VL: DIQMTQTTSSLSASLGDRVTISCRASQDIRGYLNWYQQKPDGTVKLLIYYTSILHSGVPSRFSGSGSGTDYSLTISNLEQEDFATYFCQQGNTLPWTFGGGTKLEIK
notes: also called L-CDR1 RG mutant of HA22
As for B4, the binding result with CD22 [1] is recorded as “binds”.

B5: HA22 (scFv displayed on phage) (scFv, V domains shown)
VH: EVQLVESGGGLVKPGGSLKLSCAASGFAFSIYDMSWVRQTPEKRLEWVAYISSGGGTTYYPDTVKGRFTISRDNAKNTLYLQMSSLKSEDTAMYYCARHSGYGTHWGVLFAYWGQGTLVTVSA
VL: DIQMTQTTSSLSASLGDRVTISCRASQDISNYLNWYQQKPDGTVKLLIYYTSILHSGVPSRFSGSGSGTDYSLTISNLEQEDFATYFCQQGNTLPWTFGGGTKLEIK
notes: also called starting molecule; RFB4 with SSY of H-CDR3 mutated to THW
For the molecule B5, the binding result with CD22 [2] is “binds”.
